Experimental findings from US20230227580A1, “ANTI-VWF ANTIBODIES AND USES THEREOF” (MONASH UNIVERSITY, priority 2020, published 2023) are described below.

The subject of assay [1] is VWF-GPIb binding (plasma VWF, isolated platelets). Put plainly: Ristocetin-induced platelet agglutination test (RIPA). The assay is classed as cell-based, human. As for the experimental part: Platelet-poor plasma (PPP; source of plasma VWF) was prepared by centrifugation of citrated whole blood at 300 × g for 10 min to obtain platelet rich plasma (PRP) and further centrifugation of the PRP fraction at 1700 × g for 7 min. Isolated platelets (3 × 10^8/ml) suspended in platelet wash buffer (4.3 mM K2HPO4, 4.3 mM Na2HPO4, 24.3 mM NaH2PO4, 113 mM NaCl, 5.5 mM D-glu cose, and 10 mM theophylline, pH 6.5) were centrifuged at 1500 × g for 7 min. The washed platelets were subsequently resuspended at the same concentration in modified Tyrode’s buffer (10 mM Hepes, 12 mM NaHCO3, 137 mM NaCl, 2.7 mM KCI and 5 mM glucose, pH 7.3) containing calcium (1 mM), magnesium (1 mM) and apyrase (0.02 U ml^-1) (ADPase activity). Isolated platelets (150, 300 µL at 3 × 10^8/ml) and platelet poor plasma (50 µl) were incubated with 2, 2.5, 4, 5, 40 and 80 µg ml^-1 scFv A1 and the corresponding concentration of control scFv, or Tyrode’s buffer was used to neutralise any other aggregation mechanisms beside the VWF A1-GPlbα interaction. Platelet agglutination in response to 0.75 mg mL^-1 ristocetin (Helena Biosciences, Gateshead, UK) and in the presence of the αIIbβ3 (GPIIb/IIIa) blocker Integrilin was performed for 10 min on an AggRam system from Helena Laboratories, USA

Assay [2] has as its target T1, denatured full length VWF (Homo sapiens, UniProt P04275).
T1 construct: Denatured full length VWF (Mybiosource, USA) was electrophoresed; purchased Mybiosource
Kind of assay: Western blot of denatured VWF probed with scFv A1. Type of assay: binding. The following applies: scFv A1 1 µg ml^-1; SDS-PAGE denatured VWF. As for the experimental part:
Denatured full length VWF (Mybiosource, USA) was electrophoresed at 0.1, 10, 100 ng and 1 µg using 5% SDS-Polyacrylamide gel at 125 V for 90 min. The protein was transferred onto PVDF membrane at 90V for 90 min followed by incubation with 1 µg ml^-1 scFv A1 overnight and the membrane was probed with horse-radish peroxidase (HRP)-conjugated detection antibody (1:2500, Sigma).
Later, the membrane was stripped and reprobed with 1 µg ml^-1 polyclonal sheep anti-VWF antibody (Abcam), followed by donkey anti-sheep HRP-conjugated secondary antibody (1:2500, R&D Systems, USA). Chemiluminescent detection of protein bands was done using ECL Western Blotting Substrate (ThermoFisher) and visualisation using a ChemiDoc Touch Imaging system (Bio-Rad, UK).
On the technique in general: In western blotting, separated proteins are transferred to a membrane and probed.

B1: scFv A1: single chain antibody combining variable heavy chain of mAb CR1 with variable light chain of mAb CR2; VH SEQ ID NO: 11, VL SEQ ID NO: 10 (antibody, V domains shown)
VH: QVQLQQPGAELVRPGASVKLSCKASGYSFTNYWMSWVKQRPGQGLEWIGMIHPSDSDTRLNQKFKDKATLTVDKSSSTAYMQLSSPTSEDSAGLLLCKKFEGWLPVLLGPRHHSHSLLS
VL: DIELTQSPASLAVSLGQSYRASCKSVSTSGYSYMHWNQQKPGQPPRLLIYLVSNLESGVPARFSGSGSGTDFTLNIHPVEEEDAATYYCQHIRELTRSEGDQAEINR
modifications: scFv linker; Mouse
B1: in assay [1] (plasma VWF preincubated with scFv A1 and ristocetin prior to platelet binding), the Ristocetin-induced platelet agglutination entry is recorded as “minor inhibitory effect”. Also, the “Ristocetin-induced agglutination of isolated platelets” value in assay [1] (scFv A1 up to 80 µg ml^-1, ristocetin 0.75 mg ml^-1, plasma VWF present) is on record as “did not result in delayed or reduced agglutination”. Also, the “Complex formation with denatured VWF” value in assay [2] is “did not show any complex formation”.
